According to patent US20180155451A1 (published 2018):

T1: FcγRIIb extracellular domain with C-terminal His tag (human, UniProt P31994 43-217)
T1 construct: extracellular domain; Expressed in FreeStyle293 cells; used as analyte in Biacore; also called FcgRIIb; 2b; not shown: C-terminal His tag
T1 sequence (looked up): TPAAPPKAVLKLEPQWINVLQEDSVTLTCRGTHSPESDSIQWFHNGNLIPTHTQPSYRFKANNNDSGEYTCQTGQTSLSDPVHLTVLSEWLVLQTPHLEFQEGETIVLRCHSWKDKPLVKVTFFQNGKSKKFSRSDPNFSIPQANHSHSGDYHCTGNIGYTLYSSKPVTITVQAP


Columns and labels:
[1] = molecular target: T1, FcγRIIb extracellular domain with …; test: SPR (Biacore), antibody captured on antigen-peptide chip, FcgRIIb as analyte; binding relative to GpH7-B3/GpL16-k0 (HoCon Ab) = 100
[2] = molecular target: T1, FcγRIIb extracellular domain with …; test: SPR (Biacore), antibody captured on antigen-peptide chip, FcgRIIb as analyte; binding relative to GpH7-A5/GpH7-B3/GpL16-k0 (HeCon Ab) = 100

| Binder | Ho/Con_2b [1] | He/Con_2b [2] |
| --- | --- | --- |
| GpH7-B3 variant S267_09D/GpL16-k0 (Ho Ab) (antibody, human IgG1, kappa, Substitution in both H chains; position in EU numbering; also called S267D homodimerized antibody) heavy: not shown light: DIVMTQSPLSLPVTPGEPASISCQASESLVHSNRNTYLHWYLQKPGQSPQLLIYKVSNRFSGVPDRFSGSGSGTDFTLKISRVEAEDVGVYYCSQNTHVPPTFGQGTKVEIERTVAAPSVFIFPPSDEQLKSGTASVVCLLNNFYPREAKVQWKVDNALQSGNSQESVTEQDSKDSTYSLSSTLTLSKADYEKHKVYACEVTHQGLSSPVTKSFNRGEC | 327 % of control |  |
| GpH7-A5/GpH7-B3 variant K334_18N/GpL16-k0 (He Ab) (antibody, human IgG1, kappa, Substitution in one H chain only; position in EU numbering; also called K334N heterodimerized antibody) heavy 1: not shown heavy 2: not shown light: DIVMTQSPLSLPVTPGEPASISCQASESLVHSNRNTYLHWYLQKPGQSPQLLIYKVSNRFSGVPDRFSGSGSGTDFTLKISRVEAEDVGVYYCSQNTHVPPTFGQGTKVEIERTVAAPSVFIFPPSDEQLKSGTASVVCLLNNFYPREAKVQWKVDNALQSGNSQESVTEQDSKDSTYSLSSTLTLSKADYEKHKVYACEVTHQGLSSPVTKSFNRGEC |  | 115 % of control |
| GpH7-B3 variant S267_14T/GpL16-k0 (Ho Ab) (antibody, human IgG1, kappa, Substitution in both H chains; position in EU numbering; also called S267T homodimerized antibody) heavy: not shown light: DIVMTQSPLSLPVTPGEPASISCQASESLVHSNRNTYLHWYLQKPGQSPQLLIYKVSNRFSGVPDRFSGSGSGTDFTLKISRVEAEDVGVYYCSQNTHVPPTFGQGTKVEIERTVAAPSVFIFPPSDEQLKSGTASVVCLLNNFYPREAKVQWKVDNALQSGNSQESVTEQDSKDSTYSLSSTLTLSKADYEKHKVYACEVTHQGLSSPVTKSFNRGEC | 106 % of control |  |
| GpH7-A5/GpH7-B3 variant L328_04F/GpL16-k0 (He Ab) (antibody, human IgG1, kappa, Substitution in one H chain only; position in EU numbering; also called L328F heterodimerized antibody) heavy 1: not shown heavy 2: not shown light: DIVMTQSPLSLPVTPGEPASISCQASESLVHSNRNTYLHWYLQKPGQSPQLLIYKVSNRFSGVPDRFSGSGSGTDFTLKISRVEAEDVGVYYCSQNTHVPPTFGQGTKVEIERTVAAPSVFIFPPSDEQLKSGTASVVCLLNNFYPREAKVQWKVDNALQSGNSQESVTEQDSKDSTYSLSSTLTLSKADYEKHKVYACEVTHQGLSSPVTKSFNRGEC |  | 219 % of control |
| GpH7-B3 variant S337_14T/GpL16-k0 (Ho Ab) (antibody, human IgG1, kappa, Substitution in both H chains; position in EU numbering; also called S337T homodimerized antibody) heavy: not shown light: DIVMTQSPLSLPVTPGEPASISCQASESLVHSNRNTYLHWYLQKPGQSPQLLIYKVSNRFSGVPDRFSGSGSGTDFTLKISRVEAEDVGVYYCSQNTHVPPTFGQGTKVEIERTVAAPSVFIFPPSDEQLKSGTASVVCLLNNFYPREAKVQWKVDNALQSGNSQESVTEQDSKDSTYSLSSTLTLSKADYEKHKVYACEVTHQGLSSPVTKSFNRGEC | 110 % of control |  |
| GpH7-B3 variant Y300_19Q/GpL16-k0 (Ho Ab) (antibody, human IgG1, kappa, Substitution in both H chains; position in EU numbering; also called Y300Q homodimerized antibody) heavy: not shown light: DIVMTQSPLSLPVTPGEPASISCQASESLVHSNRNTYLHWYLQKPGQSPQLLIYKVSNRFSGVPDRFSGSGSGTDFTLKISRVEAEDVGVYYCSQNTHVPPTFGQGTKVEIERTVAAPSVFIFPPSDEQLKSGTASVVCLLNNFYPREAKVQWKVDNALQSGNSQESVTEQDSKDSTYSLSSTLTLSKADYEKHKVYACEVTHQGLSSPVTKSFNRGEC | 124 % of control |  |
| GpH7-B3 variant S267_03V/GpL16-k0 (Ho Ab) (antibody, human IgG1, kappa, Substitution in both H chains; position in EU numbering; also called S267V homodimerized antibody) heavy: not shown light: DIVMTQSPLSLPVTPGEPASISCQASESLVHSNRNTYLHWYLQKPGQSPQLLIYKVSNRFSGVPDRFSGSGSGTDFTLKISRVEAEDVGVYYCSQNTHVPPTFGQGTKVEIERTVAAPSVFIFPPSDEQLKSGTASVVCLLNNFYPREAKVQWKVDNALQSGNSQESVTEQDSKDSTYSLSSTLTLSKADYEKHKVYACEVTHQGLSSPVTKSFNRGEC | 206 % of control |  |
| GpH7-B3 variant S267_07I/GpL16-k0 (Ho Ab) (antibody, human IgG1, kappa, Substitution in both H chains; position in EU numbering; also called S267I homodimerized antibody) heavy: not shown light: DIVMTQSPLSLPVTPGEPASISCQASESLVHSNRNTYLHWYLQKPGQSPQLLIYKVSNRFSGVPDRFSGSGSGTDFTLKISRVEAEDVGVYYCSQNTHVPPTFGQGTKVEIERTVAAPSVFIFPPSDEQLKSGTASVVCLLNNFYPREAKVQWKVDNALQSGNSQESVTEQDSKDSTYSLSSTLTLSKADYEKHKVYACEVTHQGLSSPVTKSFNRGEC | 213 % of control |  |
| GpH7-B3 variant S267_10E/GpL16-k0 (Ho Ab) (antibody, human IgG1, kappa, Substitution in both H chains; position in EU numbering; also called S267E homodimerized antibody) heavy: not shown light: DIVMTQSPLSLPVTPGEPASISCQASESLVHSNRNTYLHWYLQKPGQSPQLLIYKVSNRFSGVPDRFSGSGSGTDFTLKISRVEAEDVGVYYCSQNTHVPPTFGQGTKVEIERTVAAPSVFIFPPSDEQLKSGTASVVCLLNNFYPREAKVQWKVDNALQSGNSQESVTEQDSKDSTYSLSSTLTLSKADYEKHKVYACEVTHQGLSSPVTKSFNRGEC | 396 % of control |  |
| GpH7-B3 variant T335_09D/GpL16-k0 (Ho Ab) (antibody, human IgG1, kappa, Substitution in both H chains; position in EU numbering; also called T335D homodimerized antibody) heavy: not shown light: DIVMTQSPLSLPVTPGEPASISCQASESLVHSNRNTYLHWYLQKPGQSPQLLIYKVSNRFSGVPDRFSGSGSGTDFTLKISRVEAEDVGVYYCSQNTHVPPTFGQGTKVEIERTVAAPSVFIFPPSDEQLKSGTASVVCLLNNFYPREAKVQWKVDNALQSGNSQESVTEQDSKDSTYSLSSTLTLSKADYEKHKVYACEVTHQGLSSPVTKSFNRGEC | 116 % of control |  |
| GpH7-B3 variant S337_10E/GpL16-k0 (Ho Ab) (antibody, human IgG1, kappa, Substitution in both H chains; position in EU numbering; also called S337E homodimerized antibody) heavy: not shown light: DIVMTQSPLSLPVTPGEPASISCQASESLVHSNRNTYLHWYLQKPGQSPQLLIYKVSNRFSGVPDRFSGSGSGTDFTLKISRVEAEDVGVYYCSQNTHVPPTFGQGTKVEIERTVAAPSVFIFPPSDEQLKSGTASVVCLLNNFYPREAKVQWKVDNALQSGNSQESVTEQDSKDSTYSLSSTLTLSKADYEKHKVYACEVTHQGLSSPVTKSFNRGEC | 109 % of control |  |
